In patent US12269902B2, “Peptide compounds and peptide conjugates for the treatment of cancer through receptor-mediated chemotherapy” (TRANSFERT PLUS, S.E.C., priority 2015, dated 2025):
Residues, ends and D or L forms follow the SMILES beside them. *: point of attachment. X1 = CC(=O)O[C@@]12CO[C@@H]1C[C@H](O)[C@@]1(C)C(=O)[C@H](O)C3=C(C)[C@@H](OC(=O)[C@H](OC(=O)CCC(=O)*)[C@@H](NC(=O)OC(C)(C)C)c4ccccc4)C[C@@](O)([C@@H](OC(=O)c4ccccc4)[C@H]21)C3(C)C

Columns and labels:
[1] = system: MDA-MB-231 breast cancer cells; assay: cells
Procedure: Breast cancer cells (MDA-MB231) were incubated with increasing concentrations of KBC106 or curcumin. After 72 hrs, thymidine incorporation assay was performed to assess the anti-proliferative properties of both molecules. IC50 values were extracted from the anti-proliferative curves.
(§1) The phytochemical Curcumin, unconjugated and conjugated, was also tested on cancer cell proliferation (FIG. 28). Breast cancer cells (MDA-MB231) were incubated with increasing concentrations of KBC106 or curcumin. After 72 hrs, thymidine incorporation assay was performed to assess the anti-proliferative properties of both molecules. IC50 values were extracted from the anti-proliferative curves. […] Proliferation assay was also performed using different types of cancer cells (ovarian, breast, skin and colorectal cancer cells). IC50 values were calculated from the anti-proliferation curves.
(§2) Cancer cells were cultured in 96-well white plates (Perkin Elmer). They were synchronized for 24 hours in serum-deprived medium. After incubation of cells with unconjugated drugs (docetaxel, cabazitaxel, doxorubicin) or with drug-Katana peptide conjugates for 2 or 3 days, all media was aspirated and cells were pulse-labeled for 4 hours at 37° C./[…]/5% CO2 with media containing 2.5 μCi/mL [methyl-3H] thymidine (Perkin Elmer). Cells were washed, fixed, and dried before addition of scintillation fluid (Microscint 0, Perkin Elmer). After 24 hours, cell-associated tritium was quantified by counting on a plate reader (TopCount, Perkin Elmer). Incorporated [3H] thymidine was plotted for each drug concentration.

[2] = system: cancer cells; assay: Apoptosis by fluorescence microscopy (alpha-tubulin, DAPI); type: cell-based; conditions: fluorescent microscopy
Procedure: In FIG. 30, it was further evaluated whether the Curcumin conjugate (KBC106) induces cancer cell apoptosis. Cancer cells were incubated with KBC106 and curcumin. First column, uptake for both molecules can be monitored by fluorescent microscopy. Higher accumulation of fluorescence was detected for KBC1006 indicating a better cell internalization for the conjugate. Curcumin accumulation was barely visible in these cancer cells. […] In the third column, cell nucleus was labelled with the fluorescent dye DAPI.

[3] = system: HT-29 colorectal cancer cells; assay: cells; type: cell-based; conditions: Homo sapiens, Table 6
Procedure: as §1, with “anti-proliferation curves. In all cases, the Curcumin conjugate (KBC106) had stronger anti-proliferative activity (9-100 fold) than unconjugated Curcumin, as shown in Table 6 below.” for “anti-proliferation curves.”
as §2

[4] = system: HCC-1954 breast cancer cells; assay: cells; type: cell-based; conditions: Homo sapiens, HCC1954; HCC-1954 (HER2+; Lapatinib resistant); Table 6
Procedure: as §1, with “anti-proliferation curves. In all cases, the Curcumin conjugate (KBC106) had stronger anti-proliferative activity (9-100 fold) than unconjugated Curcumin, as shown in Table 6 below.” for “anti-proliferation curves.”
as §2

[5] = system: HCC-1569 breast cancer cells; assay: cells; type: cell-based; conditions: Homo sapiens, HCC1569; HCC-1569 (HER2+; Herceptin resistant); Table 6
Procedure: as §1, with “anti-proliferation curves. In all cases, the Curcumin conjugate (KBC106) had stronger anti-proliferative activity (9-100 fold) than unconjugated Curcumin, as shown in Table 6 below.” for “anti-proliferation curves.”
as §2

[6] = system: SK-MEL-28 skin cancer cells; assay: [3H]-Thymidine incorporation cell proliferation assay, SK-MEL-28; type: cell-based
Procedure: (§3) The effect of the Docetaxel-Katana peptide conjugate on various cell line proliferations was evaluated and compared to unconjugated Docetaxel (Table 4). IC50 values obtained for the Docetaxel-Katana peptide conjugate were very similar to those of Docetaxel in the cancer cells tested.
as §1, with “anti-proliferation curves. In all cases, the Curcumin conjugate (KBC106) had stronger anti-proliferative activity (9-100 fold) than unconjugated Curcumin, as shown in Table 6 below.” for “anti-proliferation curves.”
as §2

[7] = system: ES-2 ovarian cancer cells; assay: [3H]-Thymidine incorporation cell proliferation assay, ES-2; type: cell-based; conditions: ES-2 (Ovary)
Procedure: as §3
as §1, with “anti-proliferation curves. In all cases, the Curcumin conjugate (KBC106) had stronger anti-proliferative activity (9-100 fold) than unconjugated Curcumin, as shown in Table 6 below.” for “anti-proliferation curves.”
as §2

[8] = system: A-375 skin cancer cells; assay: [3H]-Thymidine incorporation cell proliferation assay, A-375; type: cell-based
Procedure: as §3
as §1, with “anti-proliferation curves. In all cases, the Curcumin conjugate (KBC106) had stronger anti-proliferative activity (9-100 fold) than unconjugated Curcumin, as shown in Table 6 below.” for “anti-proliferation curves.”
as §2

[9] = Plasma pharmacokinetics of radiolabeled compounds in mice; type: in vivo; conditions: mice iv, Docetaxel 2.2 mg/kg, KBA105 5 mg/kg
Procedure: FIG. 20 is a graph showing concentration of unconjugated and conjugated Docetaxel as a function of time. Mice were injected iv with radiolabeled [^3H]-Docetaxel or radiolabeled [^125I]-KBA105 at an equivalent dose of Docetaxel (Docetaxel=2.2 mg/kg; KBA105=5 mg/kg). Plasma samples were collected at different time points and radioactivity quantified. Results are expressed in terms of KBA105 or Docetaxel concentration in plasma as a function of time. Area under the curve for the time period (AUC1-24) was estimated for KBA105 and Docetaxel using GraphPad Prism software. Ratio between AUC1-24 for KBA105 and Docetaxel was calculated to be around 35.
To evaluate the impact of the drug conjugation to Katana Biopharma peptide on drug pharmacokinetics and tissue distribution, mice were injected with [^125I]-Docetaxel-Katana peptide conjugate. Plasma was collected at different times (FIG. 19A). Radioactivity associated with plasma was quantified and pharmacokinetic parameters were determined. […] In FIG. 20, plasma concentration of Docetaxel-Katana peptide conjugate was compared to that of unconjugated Docetaxel after iv bolus injection.
After radiolabeling free iodine was remove. […] Plasma was collected at the indicated times.

[10] = Tissue distribution of radiolabeled compounds in mice
Procedure: CD-1 mice were injected with the radiolabeled conjugate at 5 mg/kg via iv bolus injections (21A) or […] of radiolabeled Docetaxel (21B). At the indicated times (1 h, 6 h, 24 h) mice were sacrificed and perfused with saline for 8 min. Tissues were then collected and radioactivity was measured. Results are expressed in terms of ng/g of tissue.
At the indicated times (1, 6 and 24 hours), whole body perfusion was performed for 8 min with saline at a flow rate of 8 ml/min after […] hours iv bolus injections.
After radiolabeling free iodine was remove. Mice were injected with Docetaxel-[^125I]-Katana peptide conjugate at 5 mg/kg. Plasma was collected at the indicated times. After 1, 2 and 24 hours some mice were perfused with saline, sacrificed and tissues were collected. Radioactivity in the plasma and tissues were measured in a radioactivity counter and results were calculated and expressed in terms of […] for the plasma or ng/g of tissues.

[11] = system: SKOV3 cancer cells; assay: SKOV3 luciferase subcutaneous xenograft tumour model (Docetaxel, KBA-105); conditions: mice, treatments at 20 mg/kg/week as printed (equivalent dose of Docetaxel)
Procedure: Mice were implanted in the flank with SKOV3 cancer cells. Tumor growth was monitored by luminescence using the Near Infrared imaging system from Carestream.
Results are expressed in terms of luminescence intensity as a function of post-treatment days.
To further evaluate the in vivo efficacy of the Katana-drug conjugate, SKOV3 cancer cells expressing luciferase were implanted in the mouse flank. […] Tumour imaging was performed on different days by injecting the luciferase substrate luciferin and by using the Xtreme imaging system from Carestream.
Luminescence was then quantified and plotted as a function of days after implantation (FIG. 23).
SKOV3 cancer cells (2.5×10^6 cells) expressing luciferase were implanted in the right flank of mice. Tumour growth was monitored using near infrared (NiR) imaging system from Carestream by injecting the luciferase substrate luciferin. […] Luminescence associated with tumour growth of SKOV3/Luc cancer cells was quantified as a function of post-treatment days with the instrument software.

[12] = molecular target: P-gp (MDR1) (Homo sapiens, UniProt P08183); assay: Drug accumulation in MDCK-MDR1 cells with or without Cyclosporin A; conditions: 50 nM, 1 hr, 37° C., CsA 10 μM
Procedure: 6A. […] 6B. MDCK-MDR1 cells were incubated with 50 nM of either [^14C]-Doxorubicin or [^125I]-Katana peptide-Doxorubicin conjugate (KBB106) for 1 hr at 37° C. in the presence or absence of CsA (10 μM). After the incubation, cells were washed and radioactivity accumulated in cells was quantified. The results were expressed in terms of uptake fmol/mg of protein.
In order to determine whether the anticancer drug-Katana-peptide conjugates could also be P-gp substrates, MDCK-transfected cells with human MDR1 were used (MDCK-MDR1).
Cells were washed three times with PBS and preincubated for 30 min at 37° C. in culture medium without serum with or without the P-gp inhibitor Cyclosporin A (10 μM). Radiolabelled molecules (50 nM) were then added for 60 min. The cells were rapidly washed three times with ice-cold PBS and then lysed in 500 µL of 0.1 M NaOH. The amount of radiolabelled molecules retained in the cells was counted by β-scintillation counting (Packard model 1900 TR). An aliquot of cell lysate was used in parallel to determine cellular protein concentration.

Sequence of P-gp (MDR1) (P08183 whole entry): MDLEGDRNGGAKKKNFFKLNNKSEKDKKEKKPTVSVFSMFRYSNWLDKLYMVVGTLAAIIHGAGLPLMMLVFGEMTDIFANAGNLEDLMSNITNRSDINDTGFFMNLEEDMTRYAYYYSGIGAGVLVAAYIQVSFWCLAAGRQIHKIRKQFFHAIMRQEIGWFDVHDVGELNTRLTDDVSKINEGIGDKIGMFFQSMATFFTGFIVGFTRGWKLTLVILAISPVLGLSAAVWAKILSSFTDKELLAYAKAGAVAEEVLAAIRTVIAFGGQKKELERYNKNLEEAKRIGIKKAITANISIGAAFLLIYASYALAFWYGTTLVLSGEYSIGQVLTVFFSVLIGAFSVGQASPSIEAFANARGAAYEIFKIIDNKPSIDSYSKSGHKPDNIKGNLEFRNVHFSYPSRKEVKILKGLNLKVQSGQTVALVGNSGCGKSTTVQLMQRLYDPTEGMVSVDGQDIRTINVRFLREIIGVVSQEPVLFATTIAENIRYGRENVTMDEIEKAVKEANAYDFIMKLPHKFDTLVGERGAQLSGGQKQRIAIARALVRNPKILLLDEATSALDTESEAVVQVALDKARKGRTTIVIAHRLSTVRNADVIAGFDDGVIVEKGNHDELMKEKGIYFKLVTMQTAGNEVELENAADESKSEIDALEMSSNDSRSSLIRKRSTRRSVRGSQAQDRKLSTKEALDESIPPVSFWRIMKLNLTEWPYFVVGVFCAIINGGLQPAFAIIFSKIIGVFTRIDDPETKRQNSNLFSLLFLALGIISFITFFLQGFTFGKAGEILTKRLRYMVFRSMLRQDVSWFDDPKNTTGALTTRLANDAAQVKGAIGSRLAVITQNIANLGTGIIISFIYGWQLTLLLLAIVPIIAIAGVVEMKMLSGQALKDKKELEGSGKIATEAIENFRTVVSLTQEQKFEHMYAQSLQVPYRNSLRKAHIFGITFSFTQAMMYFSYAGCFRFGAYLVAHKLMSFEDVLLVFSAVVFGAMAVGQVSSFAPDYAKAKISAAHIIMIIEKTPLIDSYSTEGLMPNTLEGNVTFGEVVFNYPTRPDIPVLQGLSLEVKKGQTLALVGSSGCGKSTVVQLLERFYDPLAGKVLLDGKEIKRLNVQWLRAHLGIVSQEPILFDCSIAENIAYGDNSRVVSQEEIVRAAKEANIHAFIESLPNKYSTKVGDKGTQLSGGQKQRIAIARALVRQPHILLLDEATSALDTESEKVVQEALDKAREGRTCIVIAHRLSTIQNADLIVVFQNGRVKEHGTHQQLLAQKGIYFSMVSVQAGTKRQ

## COc1cc(/C=C/C(=O)CC(=O)/C=C/c2ccc(O)c(OC)c2)ccc1O [Curcumin, curcumin]
[1]; Homo sapiens, MDA-MB-231, 72 h
  IC50: 13.4 µM
[2]
  induction of apoptosis (nucleus fragmentation, DAPI): does not
[3]
  IC50: 51.3 µM
[4]
  IC50: 12 µM
[5]
  IC50: 14.8 µM
[6]; Homo sapiens, SK-MEL-28, Table 6
  IC50: 12.5 µM
[7]; Table 6
  IC50: 14.4 µM
[8]; Homo sapiens, A-375, Table 6
  IC50: 20.9 µM

## CSCC[C@H](NC(=O)[C@H](CC(N)=O)NC(=O)[C@H](CCCNC(=N)N)NC(=O)[C@@H](NC(=O)CNC(=O)[C@H](C)NC(=O)[C@H](CCCCNC(=O)CCC(=O)O[C@@H](C(=O)O[C@H]1C[C@@]2(O)[C@@H](OC(=O)c3ccccc3)[C@@H]3[C@]4(OC(C)=O)CO[C@@H]4C[C@H](O)[C@@]3(C)C(=O)[C@H](O)C(=C1C)C2(C)C)[C@@H](NC(=O)OC(C)(C)C)c1ccccc1)NC(=O)[C@H](C)NC(=O)[C@H](CCCNC(=N)N)NC(=O)[C@@H](NC(=O)CNC(C)=O)C(C)C)C(C)C)C(=O)N[C@@H](Cc1ccccc1)C(=O)N[C@@H](CCCCNC(=O)CCC(=O)O[C@@H](C(=O)O[C@H]1C[C@@]2(O)[C@@H](OC(=O)c3ccccc3)[C@@H]3[C@]4(OC(C)=O)CO[C@@H]4C[C@H](O)[C@@]3(C)C(=O)[C@H](O)C(=C1C)C2(C)C)[C@@H](NC(=O)OC(C)(C)C)c1ccccc1)C(=O)N[C@@H](CO)C(=O)N[C@@H](CCC(=O)O)C(=O)N[C@@H](CO)C(=O)N[C@@H](Cc1ccc(O)cc1)C(=O)O [KBA-105] (Ac-GVRAK(X1)AGVRNMFK(X1)SESY-OH; C-terminus assumed)
[9]
  Ratio between AUC1-24 for KBA105 and Docetaxel: around 35
[1]; MDA-MB-231 (Breast), Table 4, 2 or 3 days
  IC50: 0.00103 µM
[10]; Brain
  Ratio (Estimated Docetaxel/Docetaxel) (AUC1-24): 21.3
  Ratio KBA105/Docetaxel (AUC1-24): 48.3
[10]; Heart
  Ratio (Estimated Docetaxel/Docetaxel) (AUC1-24): 4.5
  Ratio KBA105/Docetaxel (AUC1-24): 10.3
[10]; Kidney
  Ratio (Estimated Docetaxel/Docetaxel) (AUC1-24): 5.3
  Ratio KBA105/Docetaxel (AUC1-24): 12.0
[10]; Liver
  Ratio (Estimated Docetaxel/Docetaxel) (AUC1-24): 26.4
  Ratio KBA105/Docetaxel (AUC1-24): 60
[10]; Lung
  Ratio (Estimated Docetaxel/Docetaxel) (AUC1-24): 221
  Ratio KBA105/Docetaxel (AUC1-24): 500
[10]; Mammary
  Ratio (Estimated Docetaxel/Docetaxel) (AUC1-24): 1.5
  Ratio KBA105/Docetaxel (AUC1-24): 3.3
[10]; Ovary
  Ratio (Estimated Docetaxel/Docetaxel) (AUC1-24): 0.7
  Ratio KBA105/Docetaxel (AUC1-24): 1.6
[10]; Spleen
  Ratio (Estimated Docetaxel/Docetaxel) (AUC1-24): 25.0
  Ratio KBA105/Docetaxel (AUC1-24): 24.9
[6]; SK-MEL-28 (Skin), Table 4, 2 or 3 days
  IC50: 9e-05 µM
[11]
  effect on body weight: unaffected
[7]; Table 4, 2 or 3 days
  IC50: 0.0007 µM
[8]; A-375 (Skin), Table 4, 2 or 3 days
  IC50: 0.00043 µM
[12]
  effect of CsA on accumulation: lack of CsA effect
